# Measurements as given in patent US20060078622A1, “Pharmaceutical formulations containing microparticles or nanoparticles of a delivery agent” (priority 2004, published 2006).
# Where two headings read alike, the source gives them in different places.
# Description: This value was assumed to be constant in the estimates of absolute bioavailability.
# The portal bioavailability provides an estimate of drug absorption from oral delivery. […] This value is used to estimate bioavailability relative to subcutaneous.
substance,measurement,setting,value
Insulin: Recombinant human zinc insulin,AUC0->T/Dose,"SC (subcutaneous) dosing, average",0.0052 kg·min/mL
same,Avg AUC0->T/Dose,"SC, average of studies 1-8",0.005159 kg·min/mL
same,AUC0->T/Dose,"SC, study 1, […]",0.005601 kg·min/mL
same,AUC0->T/Dose,"SC, study 2, […]",0.006514 kg·min/mL
same,AUC0->T/Dose,"SC, study 3, 0.05 mg/kg",0.005562 kg·min/mL
same,Insulin,"SC, study 3, 0.05 mg/kg, time 0",1.51 uU/ml
same,Insulin,"SC, study 3, 0.05 mg/kg, time 15",98.85 uU/ml
same,Insulin,"SC, study 3, 0.05 mg/kg, time 30",73.59 uU/ml
same,Insulin,"SC, study 3, 0.05 mg/kg, time 45",61.37 uU/ml
same,Insulin,"SC, study 3, 0.05 mg/kg, time 60",58.20 uU/ml
same,Insulin,"SC, study 3, 0.05 mg/kg, time 120",21.34 uU/ml
same,Insulin,"SC, study 3, 0.05 mg/kg, time 180",8.30 uU/ml
same,AUC0->T/Dose,"SC, study 4, 0.05 mg/kg",0.004929 kg·min/mL
same,Insulin,"SC, study 4, 0.05 mg/kg, time 0",0.37 uU/ml
same,Insulin,"SC, study 4, 0.05 mg/kg, time 15",103.42 uU/ml
same,Insulin,"SC, study 4, 0.05 mg/kg, time 30",81.64 uU/ml
same,Insulin,"SC, study 4, 0.05 mg/kg, time 45",68.91 uU/ml
same,Insulin,"SC, study 4, 0.05 mg/kg, time 60",58.58 uU/ml
same,Insulin,"SC, study 4, 0.05 mg/kg, time 90",32.01 uU/ml
same,Insulin,"SC, study 4, 0.05 mg/kg, time 120",21.15 uU/ml
same,AUC0->T/Dose,"SC, study 5, 0.05 mg/kg",0.001013 kg·min/mL
same,Insulin,"SC, study 5, 0.05 mg/kg, time 0",0 uU/ml
same,Insulin,"SC, study 5, 0.05 mg/kg, time 15",34.90 uU/ml
same,Insulin,"SC, study 5, 0.05 mg/kg, time 30",9.71 uU/ml
same,Insulin,"SC, study 5, 0.05 mg/kg, time 45",16.57 uU/ml
same,Insulin,"SC, study 5, 0.05 mg/kg, time 60",10.46 uU/ml
same,Insulin,"SC, study 5, 0.05 mg/kg, time 90",2.94 uU/ml
same,Insulin,"SC, study 5, 0.05 mg/kg, time 120",5.05 uU/ml
same,AUC0->T/Dose,"SC, study 6, 0.05 mg/kg",0.007644 kg·min/mL
same,Insulin,"SC, study 6, 0.05 mg/kg, time 15",191.67 uU/ml
same,Insulin,"SC, study 6, 0.05 mg/kg, time 30",119.71 uU/ml
same,Insulin,"SC, study 6, 0.05 mg/kg, time 45",121.33 uU/ml
same,Insulin,"SC, study 6, 0.05 mg/kg, time 60",74.65 uU/ml
same,Insulin,"SC, study 6, 0.05 mg/kg, time 90",42.88 uU/ml
same,Insulin,"SC, study 6, 0.05 mg/kg, time 120",25.65 uU/ml
same,AUC0->T/Dose,"SC, study 7, 0.05 mg/kg",0.005932 kg·min/mL
same,Tmax,"SC, study 7, 0.05 mg/kg",30 min
same,Insulin,"SC, study 7, 0.05 mg/kg, time 0",5.85 uU/ml
same,Insulin,"SC, study 7, 0.05 mg/kg, time 15",90.29 uU/ml
same,Insulin,"SC, study 7, 0.05 mg/kg, time 30",125.96 uU/ml
same,Insulin,"SC, study 7, 0.05 mg/kg, time 45",67.83 uU/ml
same,Insulin,"SC, study 7, 0.05 mg/kg, time 60",78.19 uU/ml
same,Insulin,"SC, study 7, 0.05 mg/kg, time 90",45.77 uU/ml
same,Insulin,"SC, study 7, 0.05 mg/kg, time 120",18.24 uU/ml
same,AUC0->T/Dose,"SC, study 8, 0.05 mg/kg",0.004079 kg·min/mL
same,Insulin,"SC, study 8, 0.05 mg/kg, time 15",131.71 uU/ml
same,Insulin,"SC, study 8, 0.05 mg/kg, time 30",70.90 uU/ml
same,Insulin,"SC, study 8, 0.05 mg/kg, time 45",66.28 uU/ml
same,Insulin,"SC, study 8, 0.05 mg/kg, time 60",0.59 uU/ml
same,Insulin,"SC, study 8, 0.05 mg/kg, time 90",33.96 uU/ml
same,Insulin,"SC, study 8, 0.05 mg/kg, time 120",14.64 uU/ml
same,FPE (fH),individual animals n 1-5,0.18
same,AUC-IP,"intraportal administration, Average",9.65
same,average insulin AUC0→t/Dose,subcutaneous dosing,0.00516 kg·min/mL
same,AUC-JV,"systemic administration, Average",15.53
